According to US20110294137A1 (MEDICAL RESEARCH COUNCIL, published 2011):

T1: Rv1827, P9WJA9
T1 chain: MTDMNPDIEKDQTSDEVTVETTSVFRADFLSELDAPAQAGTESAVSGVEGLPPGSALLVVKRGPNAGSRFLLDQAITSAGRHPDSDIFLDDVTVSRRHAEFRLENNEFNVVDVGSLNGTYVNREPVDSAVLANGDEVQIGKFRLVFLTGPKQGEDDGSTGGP

B1: PknB kinase domain (PknB 1-279) (protein)
chain: MTTPSHLSDRYELGEILGFGGMSEVHLARDLRLHRDVAVKVLRADLARDPSFYLRFRREAQNAAALNHPAIVAVYDTGEAETPAGPLPYIVMEYVDGVTLRDIVHTEGPMTPKRAIEVIADACQALNFSHQNGIIHRDVKPANIMISATNAVKVMDFGIARAIADSGNSVTQTAAVIGTAQYLSPEQARGDSVDARSDVYSLGCVLYEVLTGEPPFTGDSPVSVAYQHVREDPIPPSARHEGLSADLDAVVLKALAKNPENRYQTAAEMRADLVRVHNG
B2: wild-type ParM (other)
chain: MLVFIDDGSTNIKLQWQESDGTIKQHISPNSFKREWAVSFGDKKVFNYTLNGEQYSFDPISPDAVVTTNIAWQYSDVNVVAVHHALLTSGLPVSEVDIVCTLPLTEYYDRNNQPNTENIERKKANFRKKITLNGGDTFTIKDVKVMPESIPAGYEVLQELDELDSLLIIDLGGTTLDISQVMGKLSGISKIYGDSSLGVSLVTSAVKDALSLARTKGSSYLADDIIIHRKDNNYLKQRINDENKISIVTEAMNEALRKLEQRVLNTLNEFSGYTHVMVIGGGAELICDAVKKHTQIRDERFFKTNNSQYDLVNGMYLIGN
notes: Unlabelled, without His6 tag (plasmid pJSC1); also called ParM wild-type

Key:
[1] = target: T1, Rv1827, P9WJA9
[2] = target: the molecule itself; assay: right angle light scattering at 340 nm, self-polymerisation, 4 mM ATP

Protein	KM [1]	KM value (Michaelis-Menten, initial rate against Rv1827 concentration) [1]	kcat [1]	kcat (300 µM Rv1827, ATP varied) [1]	maximal rate [1]	specific activity [1]	critical concentration (filament formation, in presence of ATP) [2]
B1	KM, 20 µM	a KM value of 22 µM	kcat 4.7 min^-1	kcat, 4.9 min^-1	a maximal rate of 1.2 µM min^-1	the specific activity of the PknB kinase domain was calculated for 40 µM ATP as 5.9 s^-1	–
B2	–	–	–	–	–	–	2.5 µM
